Test [1] addresses T1, PRAME … (ALY) peptide in complex with HLA-A*0201 (HLA-A2) (human).
T1 construct: whole, on cells; Naturally processed and presented on PRAME+/HLA-A2+ cells (THP-1, OCI-AML2, RS4;11 HLA-A2+, primary AML blasts, SK-N-SH); no recombinant complex was used; also called PRAME ALY/HLA-A2; PRAME/HLA-A2 complex
Put plainly: flow cytometry on OCI-AML2 cells, against isotype control. On the procedure: (§1) Flow cytometry of xenograft cells. PE-conjugated Pr20 antibody was used to confirm PRAME expression on target cell lines and primary patient AML samples. Cell lines and primary samples were washed in 2% FBS in PBS, blocked with 20 ug/mL Fc receptor block (BD Pharmingen, catalog no. 564219) in PBS then stained with PE-conjugated anti-human Pr20 antibody and APC-conjugated HLA-A2 antibody for 20 minutes on ice. Labeled cells were washed with PBS and resuspended in 2% FBS/PBS prior to flow cytometric analysis.

Test [2] deals with T1, PRAME … (ALY) peptide in complex with …. Put plainly: flow cytometry on THP-1 cells, against isotype control. On the procedure:
as §1

B1: Pr20 monoclonal antibody (antibody, V domains shown)
VH: QVQLVQSGAEVRKPGASVKVSCKASGGTFSSYAISWVRQAPGQGLEWMGRIIPILGIANYAQKFQGRVTITADKSTSTAYMELSSLRSEDTAVYYCARHYGQWWDYWGQGTLVTVSS
VL: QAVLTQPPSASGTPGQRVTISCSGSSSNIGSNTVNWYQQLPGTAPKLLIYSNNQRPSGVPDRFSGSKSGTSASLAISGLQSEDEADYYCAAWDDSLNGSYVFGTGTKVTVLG
notes: also called Pr20 mAb; Pr20 antibody
B1: the “MFI (fold change to isotype control)” value in test [1] was found to be 5 fold; in test [2] it was 2.75 fold.
